# According to patent US20250368734A1 (ANTENGENE BIOLOGICS, published 2025):
# Changes are numbered by the printed parent chain.
# B1: Bis-116G1G4 (bispecific antibody)
# chain 1: EVQLQQSGPELVKPGASVKMSCKASGYTFTYYIMHWVKQEPGQGLQWIGYINPYNDGAYYSARFKGKATLTSDKSSSTAYMDLTSLTSEDSAVYYCARGGVRRYFDVWGAGTTVTVSS
# chain 2: GGGGSGGGGSGGGGSEVQLVESGGGLVQPGRSLRLSCAASGFTFDNYAMHWVRQAPGKGLEWVSGISWNSGSIGYADSVKGRFTISRDNAKNSLYLQMNSLRAEDTALYYCAKDSRGYGDYSRGGAYWGQGTLVTVSSEIVMTQSPATLSVSPGERATLSCRASQSVSSNLAWYQQKPGQAPRLLIYGASTRATGIPARFSGSGSGTEFTLTISSLQSEDFAVYYCQQYNNWPWTFGQGTKVEIK
# chain 3: DIQMTQSPSSLSASLGERVILTCRASQDIGSNLIWLQQKPDGTIKRLIYATFNLDSGVSKRFSGSRSGSDYSLTISSLDSEDFVDYYCLQYASSPYTFGGGTKLEIK
# B2: Bis-116F1G6 (bispecific antibody)
# chain 1: EVQLQHSGPELVKPGASVKMSCKASGYTFTTYVMHWVKQKPGQGLEWIGYINPYNDGTKYNEKFKGKATLTSDKSSSTAYMELSSLTSEDSAVYYCARGGVRRYFDVWGAGTTVTVSS
# chain 2: B1 chain 2
# chain 3: B1 chain 3 with I20S, I34N, K39E, D41N, N53T, S59P, D79E, S94F
# B3: 20C4E1 (antibody, V domains shown)
# VH: EVRLVESGGALVRPGGSLKLSCAASGFTFSDYGMHWVRQAPEKGLEWIAFISSVSFTIYYADTVKGRFTISRDNAKNTLFLQMTSLRSEDTALYYCTRLGPHWYFDVWGTGTTVTVSS
# VL: DVVLTQTPLSLPVSLGDQASISCRSSQSLVYSNGNTYLHWFLQKPGQSPQLLIYKVSNRFSGVPDRFSGSGSGTDFTLKISRVEAEDLGVYFCSQSTPVPTFGGGTKLEIK
# notes: Mouse monoclonal antibody from hybridoma subclone
# B4: 36A3G8 (antibody, V domains shown)
# VH: QVQLQQSGAELARPGASVKMSCKASGYTFTTYTMHWIKQRPGQDLEWIGFINPSSGYTKYNQNFKDKATLTADKSSTTAYMQLNSLTSEDSAVYYCASPYGNIYFDVWGTGTTVTVSS
# VL: DIVMTQSQKFMSTAVGDRVSITCKASQNVGTAVAWYQQKPGQSPKLLIYSASNRYTGVPDRFTGSGSGTDFTLTISNMQSEDLADYFCQQYSSYPLTFGAGTKLELK
# notes: as for B3
# B5: 26E2H6 (antibody, V domains shown)
# VH: EVQLVESGGDLVKPGGSLKLSCAASGFTFSSYGMSWVRQTPDKRLEWVATISSGGSYTYYPDSVKGRFTISRDNAKNTLYLQMSSLKSEDTAMYYCARHATDYWGQGTTLTVSS
# VL: QIVLTQSPAIMSASPGEKVTMTCSASSSVSYMHWYQQKSGTSPKRWIYDTSKLASGVPARFSGSGSGTSYSLTISSMEAEDAATYYCQQWSSNPLTFGAGTKLELK
# notes: as for B3
# B6: 28H9C12 (antibody, V domains shown)
# VH: EVQLVESGGGLVKPGGSLKLSCAASGFTFSDYGMHWVRQAPEKGLEWVAYISSGSSTIYYADTVKGRFTISRDNAKNTLFLQMTSLRSEDTAIYYCVRRPWYFDVWGTGTTVTVSS
# VL: DVLMTQTPLSLPVSLGDQASISCRSSQSIVHSNGNTYLQWYLQKPGQSPKLLIYKVSNRFSGVPDRFSGSGSGTDFTLKISRLEAEDLGVYYCFQGSHVPFTFGSGTKLEIK
# notes: Mouse monoclonal antibody from hybridoma subclone; also called 281H9C12
# Target: T1, human GPRC5D (human, UniProt Q9NZD1 1-345)
# Test: cell-based or functional assay
# T1 sequence (Q9NZD1 whole entry): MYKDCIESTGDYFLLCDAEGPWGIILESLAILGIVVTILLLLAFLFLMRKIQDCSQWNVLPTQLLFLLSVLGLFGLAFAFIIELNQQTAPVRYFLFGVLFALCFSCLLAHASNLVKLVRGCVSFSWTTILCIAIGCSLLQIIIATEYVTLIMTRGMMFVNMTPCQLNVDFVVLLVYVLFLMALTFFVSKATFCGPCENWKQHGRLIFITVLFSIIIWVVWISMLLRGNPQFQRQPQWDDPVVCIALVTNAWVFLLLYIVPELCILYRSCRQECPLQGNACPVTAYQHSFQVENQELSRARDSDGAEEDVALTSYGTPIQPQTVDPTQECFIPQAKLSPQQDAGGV
Binder,EC50 [nM],Top killing % [%]
B1,1.88,69.2
B2,1.66,71.8

# Target: T2, cynomolgus monkey GPRC5D (cynomolgus monkey)
# T2 construct: whole, on cells; HEK293T-cynoGPRC5D cells; also called cynoGPRC5D
# Test: FACS, HEK293T-cynoGPRC5D cells; also: test concentration or dose not given here
# Description: (§1) The subcloning plates were screened by Mirrorball assay and the subclones with good binding ability were expanded to 24-wells for confirmation tests. The specificity and cross-reactivity of these subclones were confirmed with FACS analysis. Briefly, parental HEK293T, HEK293T cells stably over-expressing human GPRC5D protein (i.e., HEK293T-hGPRC5D), HEK293T cells stably over-expressing cynomolgus monkey GPRC5D protein (i.e., HEK293T-cynoGPRC5D), HEK293T cells stably over-expressing mouse GPRC5D protein (i.e., HEK293T-mGPRC5D), and OPM2 cells were incubated with antibodies produced by each subclone, respectively. Fluorescent dye-conjugated secondary antibody was used to detect the binding of the primary antibody with the cells. Median fluorescence intensity (MFI) was measured by FACS analysis,
# (§2) As a result, 21 antibodies were discovered with unique sequences showing positive binding with HEK293T-hGPRC5D and OPM2 cells. Among which, some clones could also bind with HEK293T-cynoGPRC5D and/or HEK293T-mGPRC5D. […] ATG596 was a positive human IgG1 control antibody which comprises a VH region having an amino acid sequence as set forth in SEQ ID NO: 199, and a VL region having an amino acid sequence as set forth in SEQ ID NO: 200.
Binder,% Positive [%],MFI
B3,99.2,31300
B4,96.6,3110
B5,1,116
B6,99.8,18000

# Target: T1, human GPRC5D
# Test: FACS, HEK293T-hGPRC5D cells; also: test concentration or dose not given here
# Procedure, shortened: (§3)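 Subclone antibodies incubated with parental or GPRC5D-overexpressing HEK293T cells (human, cynomolgus, mouse) and OPM2 cells; bound antibody detected with fluorescent dye-conjugated secondary antibody. Median fluorescence intensity read by FACS.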
Binder,% Positive [%],MFI
B3,99.9,38900
B4,99.3,31800
B5,99.8,27200
B6,99.6,25100

# Target: T3, mouse GPRC5D (mouse, UniProt Q9JIL6 1-344)
# T3 construct: whole, on cells; HEK293T-mGPRC5D cells; also called mGPRC5D; murine GPRC5D
# T3 sequence (looked up): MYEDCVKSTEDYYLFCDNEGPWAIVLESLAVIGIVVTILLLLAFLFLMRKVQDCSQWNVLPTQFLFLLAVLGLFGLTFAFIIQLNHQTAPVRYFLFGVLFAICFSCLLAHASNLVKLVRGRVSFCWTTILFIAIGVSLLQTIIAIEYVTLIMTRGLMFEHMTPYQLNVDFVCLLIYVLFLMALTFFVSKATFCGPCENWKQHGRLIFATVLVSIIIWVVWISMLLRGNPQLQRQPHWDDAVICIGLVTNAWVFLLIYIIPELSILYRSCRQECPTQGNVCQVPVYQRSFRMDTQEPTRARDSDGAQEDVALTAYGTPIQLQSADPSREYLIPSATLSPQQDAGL
# Test: FACS, HEK293T-mGPRC5D cells; also: test concentration or dose not given here
# Description: as §1, §2
Binder,% Positive [%],MFI
B3,82.7,592
B5,68.4,370
B6,1.6,121

# Target: T1, human GPRC5D
# Test: FACS, OPM-2 cells; also: test concentration or dose not given here
# Procedure, shortened: as §3
Binder,% Positive [%],MFI
B3,99.5,2020
B4,96.3,791
B5,97.9,1150
B6,97.9,1120
